Patent US10933132B2, “Combination of epigenetic factors and bispecific compounds targeting CD33 and CD3 in the treatment of myeloid leukemia” (AMGEN RESEARCH (MUNICH) GMBH, priority 2013, dated 2021)

Test system: KG1α AML cells
Test: G-CSF up-regulation of CD33 on AML cell lines, flow cytometry
Type: cell-based
Conditions: 10 days; for CD33 MFI Ratio: KG1α, untreated 16.5
Procedure: AML cell lines OCI-AML3 and KG1α were seeded in 24-well plates at 5×10^5 cells/ml on day 0. Cells were either left untreated (UT) or treated with 200 ng/ml (C1) or 2000 ng/ml (C2) G-CSF (Peprotech) for 10 days. G-CSF was freshly added to the cultures biweekly. On day 10, cells were harvested and analyzed for changes in CD33 surface expression by flow cytometry.

B1: G-CSF: glycoprotein cytokine that stimulates the bone marrow to produce granulocytes and stem cells (Peprotech) (protein, UniProt P09919 31-207, looked up)
Granulocyte …: TPLGPASSLPQSFLLKCLEQVRKIQGDGAALQEKLVSECATYKLCHPEELVLLGHSLGIPWAPLSSCPSQALQLAGCLSQLHSGLFLYQGLLQALEGISPELGPTLDTLQLDVADFATTIWQQMEELGMAPALQPTQGAMPAFASAFQRRAGGVLVASHLQSFLEVSYRVLRHLAQP
upregulation of CD33 (in words) (KG1α AML cells, 200 and 2000 ng/ml): low upregulation | CD33 MFI Ratio (C1 = 200 ng/ml G-CSF): 17.9 | CD33 MFI Ratio (C2 = 2000 ng/ml G-CSF): 19.2
